# Molecular target: human alpha-thrombin (Homo sapiens, UniProt P00734;P00734 328-363;364-622)
# Experiment: FRET
binder,measurement,value
TAAGTTCATCTCGGTTGGTGTGGTTGG (structured_DNA) [APT (thrombin aptamer with 12 nt 5' toehold)],binding result,binds

# From paper PMC1409677
